Among the data in article PMC11522559 are fold decrease of affinity against unphosphorylated PRC1 and Kd values, retold here.

In general, Kd refers to the constant that tells how readily two partners part at equilibrium. A low value points to higher affinity.

The target of test [1] is Alexa647-labeled microtubules (porcine brain tubulin), antiparallel overlaps (porcine) (UniProt P02550).
Test [2] has the same target. This is another data set of the same source.

Where only a bound is given, the exact number is not on record here.

Sequence of UniProt P02550 (P02550 whole entry): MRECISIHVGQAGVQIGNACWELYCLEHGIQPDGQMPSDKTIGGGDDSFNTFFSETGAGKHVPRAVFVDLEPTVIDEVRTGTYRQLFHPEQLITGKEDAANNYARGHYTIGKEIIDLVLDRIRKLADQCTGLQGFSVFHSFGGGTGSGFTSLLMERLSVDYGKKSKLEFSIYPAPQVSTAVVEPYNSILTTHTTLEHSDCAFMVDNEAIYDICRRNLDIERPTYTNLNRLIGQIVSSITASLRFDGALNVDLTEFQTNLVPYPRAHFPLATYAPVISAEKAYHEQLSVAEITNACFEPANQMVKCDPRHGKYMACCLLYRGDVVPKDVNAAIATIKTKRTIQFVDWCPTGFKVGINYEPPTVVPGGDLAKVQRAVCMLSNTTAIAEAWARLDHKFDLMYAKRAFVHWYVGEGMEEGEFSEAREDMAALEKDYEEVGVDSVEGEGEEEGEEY

As to “CDK1-phosphorylated PRC1-Alexa546 (human PRC1 isoform 2) (from UniProt O43663-2 1-576) (natural protein)”, the fold decrease of affinity against unphosphorylated PRC1 in test [1] was more than 10 fold. Take “PLK1-phosphorylated PRC1-Alexa546 (human PRC1 isoform 2) (from UniProt O43663-4 1-606) (natural protein)”: the Kd in test [2] stood at 9.6 nM.
